According to the nanobody polyreactivity screen of Harvey et al. (2022):

Experiment: yeast display, Sf9 membrane polyspecificity reagent, FACS + sequencing; frameworks hold sequencing errors
How it was run: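 In a synthetic yeast display library (Saccharomyces cerevisiae BJ5465), nanobody expression was induced with galactose for 36–48 hours. FACS gates were set low and high (top ~1%) using anti-HA fluorescence for expression and streptavidin fluorescence for binding of the Sf9 membrane reagent. Each polyreactivity label is drawn from the gate of origin.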

Sequence	polyreactivity (PSR sort gate)
QVQLVESGGGLVQAGGSLRLSCAASGFTFYRYTMGWSRQAPGKERELVAAISARGVSTYYADSVKGRFTISRDNAKNTVYLQMNCLKPEDTAVYYCYVSRYDSWGQGTQVTVSS	high polyreactivity
QVQLVESGGGLVQAGGSLRLSCAASGFTFYSNAMGWYRQAPGKERELVAAISFSGTRTYYADSVKGRFTISRDNAKNTVYLQMNSLKPEDTAVYYCNAVAYNYPRTYDYWGQGTQVTVSS	high polyreactivity
QVQLVESGGGLVQAGGSLRLSCAASGFTFYSNDMGWYRQAPGKERELVAAISYSGGSTYYADSVKGRFTISRDNAKNTVYLQMKRLNPEDTAVYYCAAGGLQQGDYWGQGTQVTVSS	low polyreactivity
QVQLVESGGGLVQAGGSLRLSCAASGFTFYSYAMGWYRQAPGKERELVAAISWSGTRTYYADSVKGRFTISRDNGKNTVYLQMTSLKPEVTAVYYCAGRGYRYGYGYWGQGTQVTVSS	high polyreactivity
QVQLVESGGGLVQAGGSLRLSCAASGFTFYSYAMGWYRQAPGKERELVATISSGGRTYYADSVKGRFTISRDNAKNTVYLQMNSLKPEDTAVYYCAARWRPHPFAPPGYYSWGQGTQVTVSS	high polyreactivity
QVQLVESGGGLVQAGGSLRLSCAASGFTFYTNAMGWYRQAPGHERELVARISRRGGSTYYADSVKGRFTISRDNAKNTVYLQMNSLKPEDTAVYYCNADGRAAVQYDYWGQGTQVTVSS	high polyreactivity
QVQLVESGGGLVQAGGSLRLSCAASGFTFYTNAMGWYRQAPGKERELVAAISKRGASTYYADSVKGRFTISRDNAKNTVYLQMNSLKPEDTAVYYCAASSRTHGSYDYWGQGTQVTVSS	high polyreactivity
QVQLVESGGGLVQAGGSLRLSCAASGFTFYTNAMGWYRQAPGKERELVAAITKSDGSTYYADSVKGRFTISRDNAKNTVYLQMNSLKPEDTAVYYCATERRYPYYGGIVIYDYWGQGTQVTVSS	low polyreactivity
QVQLVESGGGLVQAGGSLRLSCAASGFTFYTYAMGWYRQAPGKEMELVADISSGGSTNYADSVKGRFTISRDNAKNTVYLQMNSLKPEDTAVYYCSADYYFLDWYDYWGQGTQVTVSS	low polyreactivity
QVQLVESGGGLVQAGGSLRLSCAASGFTFYVNAMGWYRQATGKERELVAAISSRGGSTYYADSVKGRFTISRDNAKNTVYLQMNSLKPEDTAVYYCNRVRDQRRYEYWGQGTQVTVSS	high polyreactivity
QVQLVESGGGLVQAGGSLRLSCAASGFTFYVYARGWYRQAPGKERQLVAAISRSGGSTYYADSVKGSFTISRDNAKNTVYLQMQSLKPEDTAVYYCAVVQRYWYPGIVPYDYWGQGSQVTVSS	high polyreactivity
QVQLVESGGGLVQAGGSLRLSCAASGFTFYWYDMGWYRQAPGKEWELVATMSPGGGTNYADSVKGRFTISRDNAKNTVSLQMNSLKPEDTSVYYCAADGSAGYQWGYDFEGDYWGQGTQLTVSS	high polyreactivity
QVQLVESGGGLVQAGGSLRLSCAASGFTFYYAMGWYRQAPGKERELVAAISSSGARTYYADSVKGRFTISRDNAKYTVYLQMNSLKPEDTAVYYCAARRYYKFYYWGQGTQVTVSS	high polyreactivity
QVQLVESGGGLVQAGGSLRLSCAASGFTFYYNAMGWYRQAPGKERELVASIRSGGSTKYADSVKGRFTISRDNAKNTVYLQMNSLKPEDTAVYYCAKERYHISFFYQMVYWGQGTQVTVSS	low polyreactivity
QVQLVESGGGLVQAGGSLRLSCAASGFTFYYNAMGWYRQAPGKERELVASISSNGTSTYYADSVKGRFTISRDNAMNTVYLQMNSLKPEDTAVYYCNVDIFDPRTYDYWGQGTQVTVSS	low polyreactivity
QVQLVESGGGLVQAGGSLRLSCAASGFTFYYNAMGWYRQAPGKERELVASISSNGTSTYYADSVKGRFTISRDNAMYTVYLQMNSLKPEDTAGYYCAADDVCVYWSSTHNWARGDYWGQGSQVTVSS	low polyreactivity
QVQLVESGGGLVQAGGSLRLSCAASGFTFYYYAMGWYRQAPGKERELVAAINWSGGTTYYADSVKGRFTISRDNAKNTVYLQMNSLKPEDTAVYYCAVSVFTVAPYRRYDYWGQGTQVTVSS	high polyreactivity
QVQLVESGGGLVQAGGSLRLSCAASGFTFYYYAMGWYRQAPGKERELVAAISIGGSTYYAGSVKGRFTISRHNEKNTVYLQMNSLKPEDTAVYYCNVVFTYWPPGTARYDYSGQGTQVTVSS	high polyreactivity
QVQLVESGGGLVQAGGSLRLSCAASGFTFYYYAMGWYRQAPGKERELVAAISSSGGSTSYADSVKGRFTISRDNAKNTVYLQMNSLKPEDTAVYYCAAVYWQSGRGKMCYWGQGTQVTVSS	high polyreactivity
QVQLVESGGGLVQAGGSLRLSCAASGFTFYYYAMGWYRQAPGKESELVAAITWSGDITSYADSVKGRFTISRDNAKNTVYLQMNSLKPEDTAVYYCAAYVYVPGYNAAYDYWGQGTQVTVSS	low polyreactivity
QVQLVESGGGLVQAGGSLRLSCAASGFTFYYYMGCYRQAPGKERELVAAITSGDTTYYADSVKGRFTISRDNAKNTVYLQMNSLKPEDTAVYYCNVDQAIYRWVPWEMDYWGQGTQVTVSS	low polyreactivity
QVQLVESGGGLVQAGGSLRLSCAASGFTIAYNAMGWYRQAPGKERDLVAAISSSGGRTYYADSVKGRFTISRDNAKNTVYFQMNSLKPEDTAVYYCATRPKVAYEYVYWGQGTQVTVSS	high polyreactivity
QVQLVESGGGLVQAGGSLRLSCAASGFTIDGYAMGWYRQAPGKERELVAAIRRGGRTKYADSVKGRFTISRDNAKNTVYLQMNSLKPEDTAVYYCAADRSRRGHLTHGYWGQGTQVTVSS	high polyreactivity
QVQLVESGGGLVQAGGSLRLSCAASGFTIFEDNAMGSYRQAPGKERELVAAITSGGSTNYADSVKGRFTISRDNAKNTVYLQMNSLKPEDTAVYYCAYDRVPLKTRFYYFPWGYDYWGQGTQVTVSS	low polyreactivity
QVQLVESGGGLVQAGGSLRLSCAASGFTIFLNAMGWYRQAPGKERELVAAITVSGSSTYYADSVKGRFTISRDNAKNTVYLQMNSLKPEDTAVYYCNAEIYSPYYTYDYWGQGTQVTVSS	low polyreactivity
QVQLVESGGGLVQAGGSLRLSCAASGFTILRYAMGWDRQAPGTERELVAAIDWSGGSTYYADSVKGRFTISRDNAKNTVYLQMNSLKPEDTAVYYCNARTINVPSRFNYWGQGTQVTVSS	low polyreactivity
QVQLVESGGGLVQAGGSLRLSCAASGFTIRRNAMGWYRQAPGKERELVAAISRSGGSTYADSVKGRFTISRDNAKNTVYLQMNSLKPEDTAVYYFASDHSYYRYTYTALIAEFYYWGQGTQVTVSS	low polyreactivity
QVQLVESGGGLVQAGGSLRLSCAASGFTIRRYAMGWYRQAPGKERELVAAITTGGSTYYADSVKGRFTISRDNAKNTVYLQMNSLKPEDTAVYYCATDTYPYPLYYSPGAYGYWGQGTQVTVSS	high polyreactivity
QVQLVESGGGLVQAGGSLRLSCAASGFTIRSYVMGWYRQAPGKERELVAAIRRSGGSTYYADSVKGRFTISRDNAKNTVYVQLNSLKPEDTAFYYCNAPHHRYDWGQGTQVTVSS	high polyreactivity
QVQLVESGGGLVQAGGSLRLSCAASGFTIRWYTMGWYRQAPGKERELVAAISRGGSTNYADSVKGRFTISRDNAKNTVYLQMNSLKPEDTAVYYCATSAPLVTSSGYGYWGQGTQVTVSS	high polyreactivity
